Like-named read-outs stand apart in the source and are kept apart here.

These results are taken from patent US20240199757A1 (UNIVERSITY OF CHICAGO, published 2024).

Assay [1] deals with T1, human NT5E expressed on MDA-MB-231 cells (human, UniProt P21589 27-549).
T1 sequence (looked up): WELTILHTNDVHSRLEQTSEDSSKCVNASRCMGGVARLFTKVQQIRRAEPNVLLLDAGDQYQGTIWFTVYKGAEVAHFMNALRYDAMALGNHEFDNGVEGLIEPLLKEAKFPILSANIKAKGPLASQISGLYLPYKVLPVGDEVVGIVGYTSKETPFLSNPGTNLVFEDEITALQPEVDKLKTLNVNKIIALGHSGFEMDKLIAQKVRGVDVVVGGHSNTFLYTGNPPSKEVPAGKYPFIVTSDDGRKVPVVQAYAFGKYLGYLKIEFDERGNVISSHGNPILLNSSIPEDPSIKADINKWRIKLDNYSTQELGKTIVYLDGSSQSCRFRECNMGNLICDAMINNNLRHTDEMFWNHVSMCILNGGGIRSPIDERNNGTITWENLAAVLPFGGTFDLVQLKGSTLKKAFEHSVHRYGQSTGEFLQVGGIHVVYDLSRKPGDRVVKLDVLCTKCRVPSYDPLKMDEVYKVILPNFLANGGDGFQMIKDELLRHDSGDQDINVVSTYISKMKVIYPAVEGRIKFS
Kind of assay: cell-based or functional assay.

Assay [2] deals with T2, Full-length human NT5E (recombinant, in-house) (human, UniProt P21589 27-549).
T2 construct: also called hNT5E; hNT5EWT
T2 sequence: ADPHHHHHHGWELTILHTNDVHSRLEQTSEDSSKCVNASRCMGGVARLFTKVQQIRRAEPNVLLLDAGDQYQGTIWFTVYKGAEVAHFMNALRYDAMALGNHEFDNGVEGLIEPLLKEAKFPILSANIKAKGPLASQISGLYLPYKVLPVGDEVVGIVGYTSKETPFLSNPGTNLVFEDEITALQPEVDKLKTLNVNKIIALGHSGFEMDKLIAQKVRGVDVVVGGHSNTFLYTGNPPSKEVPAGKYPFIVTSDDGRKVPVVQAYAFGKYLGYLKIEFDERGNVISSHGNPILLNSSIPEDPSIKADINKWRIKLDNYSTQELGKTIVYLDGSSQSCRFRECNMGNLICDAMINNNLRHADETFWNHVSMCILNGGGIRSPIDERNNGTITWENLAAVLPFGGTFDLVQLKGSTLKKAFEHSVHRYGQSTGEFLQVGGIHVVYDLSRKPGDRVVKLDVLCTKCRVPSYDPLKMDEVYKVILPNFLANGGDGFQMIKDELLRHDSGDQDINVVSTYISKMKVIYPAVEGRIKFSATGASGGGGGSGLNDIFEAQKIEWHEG
Description: SPR, His-captured NT5E, no ATP. On the procedure: (§1) All SPR experiments were performed at 25° C. using MASS-1 (Bruker) instrument. hNT5E, mNT5E and cNT5E were immobilized onto a nitrilotriacetic acid (NTA) sensor chip via His-tag. For kinetic experiments, after ligand immobilization, 2-fold serial dilutions of the Fabs were injected. After double-reference subtraction data were analyzed with BiaEvaluation (GE Healthcare) or Sierra Analyser (Bruker) software. The experiments were carried in buffers in presence and absence of 1 mM ATP to compare the kinetic parameters of the Fabs binding to closed and open form of NT5E.
A general note: In SPR one partner is held on a chip, and binding of the other changes the refractive index at the surface.

Assay [3] deals with T3, Full-length murine NT5E (recombinant) (murine, UniProt Q61503 29-552).
T3 construct: also called mNT5E
T3 sequence: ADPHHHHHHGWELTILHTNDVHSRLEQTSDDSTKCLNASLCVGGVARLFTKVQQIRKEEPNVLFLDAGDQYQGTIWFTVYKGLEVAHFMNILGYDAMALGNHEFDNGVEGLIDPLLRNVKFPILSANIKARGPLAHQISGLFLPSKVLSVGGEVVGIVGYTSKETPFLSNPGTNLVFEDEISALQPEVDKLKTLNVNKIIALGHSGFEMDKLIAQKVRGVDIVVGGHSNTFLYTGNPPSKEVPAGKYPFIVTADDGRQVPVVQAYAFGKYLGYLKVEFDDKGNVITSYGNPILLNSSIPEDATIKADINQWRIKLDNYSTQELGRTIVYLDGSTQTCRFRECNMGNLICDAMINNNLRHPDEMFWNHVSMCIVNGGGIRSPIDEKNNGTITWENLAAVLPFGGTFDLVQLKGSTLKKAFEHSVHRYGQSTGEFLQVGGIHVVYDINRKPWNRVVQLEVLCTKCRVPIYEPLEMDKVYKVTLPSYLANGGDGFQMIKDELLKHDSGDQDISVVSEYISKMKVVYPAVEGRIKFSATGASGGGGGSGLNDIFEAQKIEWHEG
Description: SPR, His-captured NT5E, no ATP. How it is done:
as §1

Assay [4] has as its target T2, Full-length human NT5E (recombinant, …). Description: SPR, His-captured NT5E, 1 mM ATP. How it is done:
as §1

Assay [5] has as its target T3, Full-length murine NT5E (recombinant). Description: SPR, His-captured NT5E, 1 mM ATP. On the procedure: as §1
Assay [6] addresses T1, human NT5E expressed on MDA-MB-231 cells. Kind of assay: cell-based or functional assay. The source holds these as a separate data set.
Assay [7] shares this target. Kind of assay: flow cytometry on MDA-MB-231 cells, 1 mM ATP. How it is done:
(§2) Flow cytometry analysis of antibodies binding to human NT5E expressed on MDA-MB-231 cells in ATP-free condition (black) or in 1 mM ATP (red). Top panel: (left) 1780 Fab and (right) 1780 IgG titrations. […] Binding was measured at the indicated range of antibody concentrations and is expressed as mean±st. dev of median fluorescence intensity (MFI) of 1-2 replicates. Data were analyzed using OriginLab, and EC₅₀ values are shown next to the fitted curves.
(§3) Human MDA-MB-231 cells and murine 4T1 cells were grown to 90% confluency, detached with 5 mM EDTA for 15 min at 37° C. and then resuspended in 37° C. lx PBS (#10010031, Gibco) supplemented with 1% FBS and 1OpM ZnCl2. Separate working buffers (WB) of PBS and 1% FBS with or without fixed nucleotide concentrations were used throughout all washing steps to maintain constant condition. In 96-well plates (#3799, Costar), 0.2×10⁶ cells were added per well. The plates were spun at 500×g for 5 min and the supernatant was removed. Anti-NT5E antibodies were diluted to the desired concentration in 100 μL WB, added to the cells and the plates were incubated for 20 min at 37° C. Plates were spun and cells were washed twice with WB then spun a second time. Cells were stained with 100 μL of secondary antibody (Alexa Fluor 647 AffiniPure Goat Anti-Human IgG, F(ab′)2 fragment specific, #109-605-006, Jackson, 1:200) dilution and plates were incubated for 20 min at 37° C. Cells were washed twice with WB then fixed on ice with WB supplemented with 0.5% PFA. Fixing solution was removed by centrifugation and cells were resuspended in cold 1× PBS. Samples were analyzed by flow cytometry using CytoFLEX (Beckman Coulter) and mean fluorescence intensity (MFI) data was extracted using FlowJo software. Resulting binding data was plotted using OriginLab.

For assay [8] the target is unchanged. Description: flow cytometry on MDA-MB-231 cells, 1 mM ATP. On the procedure:
as §2, §3
This is another data set of the same source. (A flow cytometer gives signals particle by particle.)

Assay [9] addresses T2, Full-length human NT5E (recombinant, …). Description: SPR, hNT5E-6xHis on NTA chip, primary Fab injection; Fab concentration and ATP condition not given. How it is done:
After incubation, the remaining NT5E is probed with αStrep-HRP Ab. If there is competition for binding to NT5E, then a decrease in signal would be expected.
as §1

The target in assay [10] is T3, Full-length murine NT5E (recombinant). Description: SPR, His-captured NT5E, no ATP (* Data generated poor fits). How it is done: as §1

B1: Medi9447 IgG (antibody, V domains shown)
VH: EVQLLESGGGLVQPGGSLRLSCAASGFTFSSYAYSWVRQAPGKGLEWVSAISGSGGRTYYADSVKGRFTISRDNSKNTLYLQMNSLRAEDTAVYYCARLGYGRVDEWGRGTLVTVSS
VL: QSVLTQPPSASGTPGQRVTISCSGSLSNIGRNPVNWYQQLPGTAPKLLIYLDNLRLSGVPDRFSGSKSGTSASLAISGLQSEDEADYYCATWDDSHPGWTFGGGTKLTVLG
As for B1, in [1], the “IC50 of NT5E activity on MDA-MB-231 cells, no ATP” value came out at 0.3 nM and the “IC50 of NT5E activity on MDA-MB-231 cells, with ATP” value was 1 nM.

B2: 1789 AM32 Fab (Fab, V domains shown)
VH: EVQLVESGGGLVQPGGSLRLSCAASGFNVSYSSIHWVRQAPGKGLEWVARIRGNEGDTYYADSVKGRFTISADTSKNTAYLQMNSLRAEDTAVYYCARNYWGWYPFYYFAFDYWGQGTLVTV
VL: DIQMTQSPSSLSASVGDRVTITCRASQSVSSAVAWYQQKPGKAPKLLIYSASSLYSGVPSRFSGSRSGTDFTLTISSLQPEDFATYYCQQGWDYPITFGQGTKVEIKR
notes: also called Fab32
As for B2, the Kd (in general, the constant that tells how readily two partners part at equilibrium) in [2] amounted to 86 nM; in assay [3] it was 150 nM; in [4], 15 nM; in assay [5] it was 15 nM. The koff (commonly a measure of how fast the partners let go of each other) in assay [2] was 0.0091 s⁻¹; in assay [3], 0.011 s⁻¹; in assay [4], 0.0042 s⁻¹; in assay [5], 0.0028 s⁻¹. Also, the association rate constant (kon) (commonly the second-order rate constant of association) in [2] was found to be 110000 M⁻¹ s⁻¹; in assay [3], 78000 M⁻¹ s⁻¹; in [4] it was 270000 M⁻¹ s⁻¹; in [5], 190000 M⁻¹ s⁻¹.

B3: 1780 IgG (antibody, V domains shown)
VH: EVQLVESGGGLVQPGGSLRLSCAASGFNFYSYSIHWVRQAPGKGLEWVASISSSSGYTYYADSVKGRFTISADTSKNTAYLQMNSLRAEDTAVYYCARYSWWGWHMEGWWGYMNAFDYWGQGTLVTVSS
VL: DIQMTQSPSSLSASVGDRVTITCRASQSVSSAVAWYQQKPGKAPKLLIYSASSLYSGVPSRFSGSRSGTDFTLTISSLQPEDFATYYCQQAHPKPITFGQGTKVEIKR
Turning to B3, the “IC50 of NT5E phosphate production on MDA-MB-231 cells, +500 µM ATP” value in assay [6] was 50.5 nM. Moreover, the EC50 (commonly the concentration at which the effect is half-maximal) in assay [7] was found to be 28 nM; in assay [8], 19.6 nM.

B4: 1557 Fab (Fab, V domains shown)
VH: EVQLVESGGGLVQPGGSLRLSCAASGFNVYYSSIHWVRQAPGKGLEWVASISSSSGSTSYADSVKGRFTISADTSKNTAYLQMNSLRAEDTAVYYCARYGWWEYGYGGWWHPALDYWGQGTLVTV
VL: DIQMTQSPSSLSASVGDRVTITCRASQSVSSAVAWYQQKPGKAPKLLIYSASSLYSGVPSRFSGSRSGTDFTLTISSLQPEDFATYYCQQVWWGPITFGQGTKVEIKR
On to B4, for which the binding result in [9] is “binds”.

B5: 1789 AM42 Fab (Fab, V domains shown)
VH: EVQLVESGGGLVQPGGSLRLSCAASGFNVSYSSIHWVRQAPGKGLEWVAKIRGGHQDTHYADSVKGRFTISADTSKNTAYLQMNSLRAEDTAVYYCARNYWGWYPFYYFAFDYWGQGTLVTV
VL: DIQMTQSPSSLSASVGDRVTITCRASQSVSSAVAWYQQKPGKAPKLLIYSASSLYSGVPSRFSGSRSGTDFTLTISSLQPEDFATYYCQQGWDYPITFGQGTKVEIKR
Consider B5, for which the Kd in assay [2] amounted to 38 nM; in assay [3], 63 nM; in [4], 11 nM; in assay [5], 12 nM. Moreover, the koff in [2] turned out to be 0.0067 s⁻¹; in assay [3] it was 0.012 s⁻¹; in [4], 0.0036 s⁻¹; in assay [5], 0.0029 s⁻¹. For the same molecule, the kon in assay [2] amounted to 180000 M⁻¹ s⁻¹; in assay [3], 190000 M⁻¹ s⁻¹; in assay [4], 320000 M⁻¹ s⁻¹; in assay [5] it was 250000 M⁻¹ s⁻¹.

B6: 1789 AM39 Fab (Fab, V domains shown)
VH: EVQLVESGGGLVQPGGSLRLSCAASGFNVSYSSIHWVRQAPGKGLEWVASIRGAGSDTRYADSVKGRFTISADTSKNTAYLQMNSLRAEDTAVYYCARNYWGWYPFYYFAFDYWGQGTLVTV
VL: DIQMTQSPSSLSASVGDRVTITCRASQSVSSAVAWYQQKPGKAPKLLIYSASSLYSGVPSRFSGSRSGTDFTLTISSLQPEDFATYYCQQGWDYPITFGQGTKVEIKR
Take B6: the Kd in [2] was 35 nM; in assay [4] it was 7.9 nM; in assay [5] it was 12 nM; in assay [10] it was 99 nM. Besides, the koff in assay [2] is 0.0099 s⁻¹; in assay [3], 0.013 s⁻¹; in assay [4], 0.0039 s⁻¹; in assay [5], 0.0035 s⁻¹. Also, the kon in assay [2] was determined as 280000 M⁻¹ s⁻¹; in assay [3], 140000 M⁻¹ s⁻¹; in [4], 490000 M⁻¹ s⁻¹; in assay [5] it was 290000 M⁻¹ s⁻¹.
